Experimental data taken from patent US20180021429A1, “ANTICANCER AGENTS OR ANTIMETASTATIC AGENTS USING FSTL1 AND COMBINATION DRUG THEREOF” (PHARMA FOODS INTERNATIONAL CO., LTD., priority 2015, published 2018).

B1: #6-55: chicken-mouse chimeric anti-FSTL1 antibody clone; variable regions SEQ ID NO: 783 (light), 785 (heavy) (antibody, V domains shown)
VH: AVTLDESGGGLQTPGGALSLVCKGSGFTFTSVTMQWVRQAPGKGLEWVASVCSGSSTYYAPAVKGRATISRDNGQSTVRLQLSNLRPEDTGTYYCAKIAGRARWSCTSAAYNIDAWGHGTEVIVSS
VL: ASTQPSSVSAIPGETVKITCSGGGNNYGWYQQRSPGSAPVTVIYYNDNRPSNIPSRFSGSTSGSTSTLTITGVQADDEAIYYCGSWDSNTDSGIFGAGTTLTVL
modifications: mouse constant regions
B2: #7-34: chicken-mouse chimeric anti-FSTL1 antibody clone; variable regions SEQ ID NO: 787 (light), 789 (heavy) (antibody, V domains shown)
VH: AVTLDESGGGLQTPGGGLSLVCKASGFTFSSVTMQWVRQAPGKGLEWVASICSGSSTYYGPAVKGRATISRDNGQNTVRLQLNNLRAEDTATYYCAKIVGRGRWSCTSAAYNIDAWGHGTEVIVSS
VL: ASTQPSSVSANPGETVKITCSGGGNNYGWYQQKSPGSAPVTVIYYNNNRPSNIPSRFSGSTSGSTSTLTITGVQAEDEAVYYCGSYEGSTDSGIFGAGTTLTVL
modifications: mouse constant regions
B3: #5-43: chicken-mouse chimeric anti-FSTL1 antibody clone; variable regions SEQ ID NO: 779 (light), 781 (heavy) (antibody, V domains shown)
VH: AVTLDESGGGLQTPGGGLSLVCKGSGFTFSSFNMFWVRQAPGKGLEWVAGIGKDGGTGYGAAVDGRATISKDSGQSTLRLQLNNLRAEDTGTYYCAKAAGGCSYDWCGAYTGDIDTWGHGTEVIVSS
VL: ASTQPSSVSANPGEAVKITCSGGSGSYYGWYQQKSPGSAPVTVIYNNNQRPSDIPSRFSGSKSGSTATLTITGVQAEDEAVYFCGGYDSSTGHGGIFGAGTTLTVL
modifications: mouse constant regions
B4: #5-8: chicken-mouse chimeric anti-FSTL1 antibody clone; variable regions SEQ ID NO: 771 (light), 773 (heavy) (antibody, V domains shown)
VH: AVTLDESGGGLQTPGGGLSLVCKGSGFTFSSFNMFWVRQAPGKGLEWVAGIGKDGVPKYGTAVDGRATISKDNGQSTMRLQLNNLRAEDTGTYFCAKAAGGCSYDWCGIYTGDIDTWGHGTEVIVSS
VL: ASTQPSSVSANPGEAVKITCSGGSGSYYGWYQQKSPGSAPVTVIYNNNQRPSDIPSRFSGSKSGSTATLTITGVQAEDEAVYFCGGYDSSTGHGGIFGAGTTLTVL
modifications: mouse constant regions
B5: #8-7: chicken-mouse chimeric anti-FSTL1 antibody clone; variable regions SEQ ID NO: 799 (light), 801 (heavy) (antibody, V domains shown)
VH: AVTLDESGGGLQTPGGGLSLVCKGSGFTFSSFNMFWVRQAPGKGLEWVAGIGKDGVPKYGAAVDGRATISKDNGQSTLRLQLNNLRAEDTGTYFCAKAAGGCSYDWCGIYAGDIDTWGHGTEVIVSS
VL: ASTQPSSVSANPGEAVKITCSGGSGSYYGWYQQKSPGSAPVTVIYNNNQRPSDIPSRFSGSKSGSTATLTITGVQAEDEAVYFCGGYDSSTGHGGIFGAGTTLTVL
modifications: mouse constant regions
B6: #5-3: chicken-mouse chimeric anti-FSTL1 antibody clone; variable regions SEQ ID NO: 767 (light), 769 (heavy) (antibody, V domains shown)
VH: AVTLDESGGGLQTPGGALSLVCKGSGFSFSSFNMFWVRQAPGKGLEWVAGIGKDGVPKYGAAVDGRATISKDNGQSTMRLQLNNLRAEDTGTYFCAKAAGGCSYDWCGIYAGDIDTWGHGTEVIVSS
VL: ASTQPSSVSANPGETVKITCSGGSGYYYGWYQQKSPGSVPVTVIYNNNNRPSDIPSRFSGSKSGSTGTLTITGVRAEDEAVYYCGGYDNSGTGIFGAGTTLTVL
modifications: mouse constant regions
B7: #8-1: chicken-mouse chimeric anti-FSTL1 antibody clone; variable regions SEQ ID NO: 791 (light), 793 (heavy) (antibody, V domains shown)
VH: AVTLDESGGGLQTPGGALSLVCKGSGFTFSSFNMFWVRQAPGKGLEWVAGIGKDGVPKYGAAVDGRATISKDNGQSTMRLQLNNLRAEDTGTYFCAKAAGGCSYDWCGIYAGDIDTWGHGTEVIVSS
VL: ASTQPSSVSANPGEAVKITCSGGSGSYYGWYQQKSPGSAPVTVIYNNNQRPSDIPSRFSGSKSGSTATLTITGVQAEDEAVYFCGGYDSSSGHGGIFGAGTTLTVL
modifications: mouse constant regions
B8: #8-4: chicken-mouse chimeric anti-FSTL1 antibody clone; variable regions SEQ ID NO: 795 (light), 797 (heavy) (antibody, V domains shown)
VH: AVTLDESGGGLQTPGGGLSLVCKGSGFTLSSFNMFWVRQAPGKGLEWVAGVGKDGGTAYGAAVDGRATISRDSGQSTVRLQLNNLRAEDTGTYFCAKAAGGCSYSWCGAYVGDLDAWGHGTEVIVSS
VL: ASSQPSSVSANPGETVKITCSGGSGYYYGWYQQKSPGSAPVTVIYNNDNKPSDIPSRFSGSKSGSTGTLTITGVQVEDEAVYFCGGYDNSGTGIFGAGTTLTVL
modifications: mouse constant regions
B9: #5-2: chicken-mouse chimeric anti-FSTL1 antibody clone; variable regions SEQ ID NO: 763 (light), 765 (heavy) (antibody, V domains shown)
VH: AVTLDESGGGLQTPGGGLSLVCKGSGFTFSSFNMFWVRQAPGKGLEWVAGVGKDGGTGYGAAVDGRATISKDNGQSTLRLQLNNLRAEDTGTYYCAKAAGGCSYGWCGSYVGDIDAWGHGTEVIVSS
VL: ASTQPSSVSANPGEAVKITCSGGSGSYYGWYQQKSPGSAPVTVIYNNNQRPSDIPSRFSGSKSGSTATLTITGVQAEDEAVYFCGGYDSSTGHGGIFGAGTTLTVL
modifications: mouse constant regions

System: mouse bone marrow cells
Experiment: Inhibition of induction of mesenchymal stem cells (MSC) by FSTL1 in mouse bone marrow cells (Examples 4, 6, 8, 12)
Type: cell-based
Conditions: for inhibitory activity against the expansion of ALCAM-positive cells and PDGFRA-positive cells by FSTL1: Example 4: 50 ng/mL FSTL1, 10 μg/mL antibody, vs control anti-DNP antibody
Experimental: It is known that when bone marrow cells are stimulated with FSTL1, mesenchymal stem cells (MSCs) having pluripotency or self-proliferative capacity grow (Cancer Research 73: 6185, 2013). Thus, 2×10^7 cells/well of bone marrow cells collected from the thigh bone of a C57BL/6 mouse were suspended in 3 mL/well of RPMI1640 (GIBCO/Thermo Fisher Scientific Inc., Cat. No. C11875500BT) medium containing 2% fetal bovine serum, supplemented with 50 ng/mL (final concentration) of FSTL1 (R&D Systems, Inc. Cat#1694-FN-050) and 10 μg/mL of the anti-FSTL1 antibody (#5-2, […], #5-8, #5-10, #5-43, #6-55, or #7-34) or its isotype mouse IgG (anti-DNP antibody) as a control antibody “Control”, and cultured under stimulation (6-well plate). 11 days thereafter, the number of cells was counted while the cells were stained with a PE-labeled anti-ALCAM antibody (eBioscience, Cat. No. 12-1661-82) and a PE-labeled anti-PDGFRA antibody (eBioscience, Cat#12-1401-81) in order to examine the expression of MSC markers, and the contents of ALCAM-positive cells and PDGFR-positive cells were analyzed by flow cytometry using FACScan (Becton, Dickinson and Company, Code. BECTON-DICKINSON-FACSCAN) to calculate the number of each positive cell per culture.
(§1) Mouse bone marrow cells prepared in the same way as in Example 4 were supplemented with 50 ng/mL (final concentration) of FSTL1 and 10 μg/mL of the anti-FSTL1 antibody (#5-2, #5-3, #5-8, #5-10, #5-43, #6-55, or #7-34) or a control antibody anti-DNP antibody and cultured under stimulation. 11 days thereafter, the number of cells was counted while the cells were stained with a PE-Cy5-labeled anti-CD45 antibody (BD Pharmingen/Becton, Dickinson and Company, Cat. No. 555484), and the content of CD45− negative cells reported to generally contain MSCs at a high rate was analyzed by flow cytometry using FACScan to calculate the percentage and number of MSCs per culture (FIG. 99A).
as §1, with “20” for “50”, “#8-1, #8-4, #8-7, and #8-8)” for “or #7-34)”, “8” for “11”, “antibody,” for “antibody (BD Pharmingen/Becton, Dickinson and Company, Cat. No. 555484),”, “cells” for “cells reported to generally contain MSCs at a high rate”, “100A).” for “99A).”
Mouse bone marrow cells prepared in the same way as in Example 4 were supplemented with 20 ng/mL (final concentration) of FSTL1 and 10 μg/mL of the anti-FSTL1 antibody (#5-2, #5-8, #6-55, […], #8-1, #8-4, #8-7, or #8-8) or a control antibody anti-DNP antibody and cultured under stimulation. 8 days thereafter, the number of cells was counted while the cells were stained with a PE-Cy5-labeled anti-CD45 antibody, and the content of CD45− negative cells was analyzed by flow cytometry using FACScan to calculate the percentage and number of MSCs per culture (FIG. 101).

[1] = Example 8: 20 ng/mL FSTL1, 10 μg/mL antibody, 8 days, FIG. 100A
[2] = Example 12: 20 ng/mL FSTL1, 10 μg/mL antibody, 8 days, FIG. 101
[3] = Example 6: 50 ng/mL FSTL1, 10 μg/mL antibody, 11 days, FIG. 99A

| Molecule | inhibitory activity against the expansion of ALCAM-positive cells and PDGFRA-positive cells by FSTL1 (11 days) | inhibitory activity against the expansion of CD45-negative cells by FSTL1 [1] | inhibitory activity against the expansion of CD45-negative cells by FSTL1 [2] | inhibitory activity against the expansion of CD45-negative cells by FSTL1 [3] |
| --- | --- | --- | --- | --- |
| B1 | slightly strong tendency of inhibitory activity | exhibited inhibitory activity | higher inhibitory activity was confirmed in the order of #7-34, #5-2, #6-55, and #8-7 | – |
| B2 | slightly strong tendency of inhibitory activity | – | higher inhibitory activity was confirmed in the order of #7-34, #5-2, #6-55, and #8-7 | higher inhibitory activity and substantially completely inhibited the action of FSTL1 |
| B3 | slightly strong tendency of inhibitory activity | exhibited inhibitory activity | – | higher inhibitory activity and substantially completely inhibited the action of FSTL1 |
| B4 | – | exhibited inhibitory activity | – | – |
| B5 | – | – | higher inhibitory activity was confirmed in the order of #7-34, #5-2, #6-55, and #8-7 | – |
| B6 | – | – | – | higher inhibitory activity and substantially completely inhibited the action of FSTL1 |
| B7 | – | exhibited inhibitory activity | – | – |
| B8 | – | exhibited inhibitory activity | – | – |
| B9 | – | – | higher inhibitory activity was confirmed in the order of #7-34, #5-2, #6-55, and #8-7 | – |
